Measured values from patent publication US20190031771A1 (University of Pennsylvania, published 2019).

T1: human ADAMTS13 (human, UniProt Q76LX8 75-1427)
T1 construct: ELISA: full-length recombinant ADAMTS13 coated on plates (Technoclone); Activity assays: endogenous ADAMTS13 of normal human plasma; also called full-length human recombinant ADAMTS13; VWF-cleaving protease
T1 sequence (looked up): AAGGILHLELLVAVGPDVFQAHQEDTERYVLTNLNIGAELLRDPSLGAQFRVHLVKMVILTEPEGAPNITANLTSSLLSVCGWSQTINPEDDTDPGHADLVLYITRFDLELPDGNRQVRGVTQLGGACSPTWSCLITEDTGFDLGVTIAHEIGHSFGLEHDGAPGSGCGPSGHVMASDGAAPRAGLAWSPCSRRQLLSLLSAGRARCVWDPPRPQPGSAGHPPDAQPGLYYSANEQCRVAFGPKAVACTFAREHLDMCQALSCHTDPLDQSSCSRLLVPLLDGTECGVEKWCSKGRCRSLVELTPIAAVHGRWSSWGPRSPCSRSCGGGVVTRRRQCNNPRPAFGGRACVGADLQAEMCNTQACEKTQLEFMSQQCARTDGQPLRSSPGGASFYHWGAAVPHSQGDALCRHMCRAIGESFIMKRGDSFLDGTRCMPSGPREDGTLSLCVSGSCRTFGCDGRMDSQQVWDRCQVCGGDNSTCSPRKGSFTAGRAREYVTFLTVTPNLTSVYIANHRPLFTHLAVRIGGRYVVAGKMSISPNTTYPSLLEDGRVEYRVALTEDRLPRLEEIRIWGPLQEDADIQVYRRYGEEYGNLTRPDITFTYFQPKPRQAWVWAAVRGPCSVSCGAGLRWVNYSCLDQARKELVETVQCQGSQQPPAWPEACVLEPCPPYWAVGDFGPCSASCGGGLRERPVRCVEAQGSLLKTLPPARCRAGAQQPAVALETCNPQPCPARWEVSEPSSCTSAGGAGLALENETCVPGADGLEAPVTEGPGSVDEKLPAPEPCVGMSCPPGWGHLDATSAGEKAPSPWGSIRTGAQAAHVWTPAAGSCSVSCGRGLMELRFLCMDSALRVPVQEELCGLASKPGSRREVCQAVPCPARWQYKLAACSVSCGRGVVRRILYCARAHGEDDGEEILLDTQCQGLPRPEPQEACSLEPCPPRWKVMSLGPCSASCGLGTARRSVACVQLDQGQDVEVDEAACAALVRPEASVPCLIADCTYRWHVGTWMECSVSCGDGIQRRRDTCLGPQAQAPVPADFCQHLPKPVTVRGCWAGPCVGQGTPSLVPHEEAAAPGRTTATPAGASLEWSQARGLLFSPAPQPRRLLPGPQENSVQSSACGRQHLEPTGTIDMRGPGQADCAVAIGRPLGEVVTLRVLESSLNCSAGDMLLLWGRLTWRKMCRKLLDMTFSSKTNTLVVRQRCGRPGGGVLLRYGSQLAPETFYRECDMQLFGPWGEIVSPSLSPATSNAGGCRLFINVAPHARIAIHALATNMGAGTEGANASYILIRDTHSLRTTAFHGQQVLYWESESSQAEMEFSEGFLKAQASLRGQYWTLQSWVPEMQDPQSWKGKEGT


These binders were tested against T1, human ADAMTS13 (assay: phage ELISA on ADAMTS13-coated plates (positive: >10-fold absorbance above background)).

| Binder | binding result |
| --- | --- |
| scFv 1-410 (scFv, V domains shown) VH: QVQLQESGGGVVQPGGSLRLSCAASGFTFDDYTMHWVRQAPGKGLEWVSLISWDGGSTYYADSVKGRFTISRDNSKNSLYLQMNSLRTEDTALYYCAKDNGYDILTDYLDSWGQGTLVTVSS VL: ELQMTQSPSSLSASVGDRVTITCQASQDISNYLNWYQQKPGKAPKLLIYDASNLETGVPSRFSGSGSGTDFTFTISSLQPEDIATYYCQQYDNLPLTFGQGTRLEIK | binds |
| scFv 1-413 (scFv, V domains shown) VH: QVQLVQSGSEVKKPGSSVKVSCKASGGTFSSHTLSWVRQAPGQGLEWMGEIIPILDRVKYSQNFQGRVTITADKSTNTTYMELSSVRSEDTAVYYCVSNGWSNFDFWGQGTLVTVSP VL: ELELTQPPSVSVSPGQTARITCSGGALPKHYVYWYQQKPGQAPAVVIYKDTERPSGIPERFSGSTSGATVTLTISGVQADDDAVYFCQSVDSNDTSWIFGGGTKLTVL | binds |
| scFv 1-418 (scFv, V domains shown) VH: QVQLVQSGSEVKKPGSSVKVSCKASGGTFSSHTVSWVRQAPGQGLEWMGEIIPILDRVNYAENFQGRVTITADKSTNTTYMDLSSLRSEDTAVYYCTSNGWSNFDFWGQGTLVTVSS VL: ELVLTQPPSVSVSPGQTARITCSGGALPKHYAYWYQQKPGQAPAVVIYKDTERPSGIPERFSGSTSGTTVTLTISGVQADDDAVYFCQSVDSNDTSWIFGGGTKLTVL | binds |
| scFv 1-415 (scFv, V domains shown) VH: QVQLQESGGGVVQPGRSLRLSCAASGFTFRNYAMHWVRQAPGKGLEWVAVISYDGGKEYYADSVKGRFTISRDNSKNTLYLQMNSLRAEDTAVYYCARDTFSYYDFWRAFDYWGQGTLVTVSS VL: ELELTQPPSVSGSPGQSITISCTGTSSDVGGYNYVSWYQQHPGKAPKLMIYEVSNRPSGVSNRFSGSKSGNTASLTISGLQAEDEADYYCSSYTSSSTVVFGGGTKLTVL | binds |
| scFv 1-417 (scFv, V domains shown) VH: QVQLVQSGTEVKKFGSSVKVSCKASGGSFSSYTISWVRQAPGQGLEWMGSFIPILERANYAQKFQGRVTFTADKTTSTAYMELGGLRSQDTAVYYCARDLGDFGDSWGQGTLVTVSS VL: ELVLTQPPSVSVAPGKTARITCGGNNIGSKTVHWYQQKPGQAPVVVVSDDSERPSGIPERFSGSNSGNTATLTISRVEGGDEADYYCQVWDSSNDQVVFGGGTELTVL | binds |
| scFv 1-423 (scFv, V domains shown) VH: QVQLVQSGAEVKRPGSSVKVSCKASGGTFSSYTISWVRQAPGQGLEWMGSIIPVLDVTSYAQQFQGRVTITADKSTKTAYMDLSSLTFEDTALYFCSIGRYTYGHFDTWGQGTQVTVSS VL: ELVLTQPPSVSVAPGKTARVTCGGGNIGDKAVHWYQQRPGQAPVLVVFGDSARPSGIPERFSGSNSGNTATLTISRVEVGDEADYYCQVWDSNSDHQVFGGGTKLTVL | binds |
| scFv 1-432 (scFv, V domains shown) VH: QVQLVQSGAEVKKPLSSVKVSCKASGGTFNMYDINWVRQAPGQGLEWMGGIVPILGVTNYAQNFQGRLTITADKSTSTAYMELSSLRSEDTAVYYCARGVAAGWNAFDVWGQGTMVTVSA VL: ELVLTQPPSMSVVPGQTARITCGGDNIGSKSVHWYQQKPGQAPVLVVNDDTERPSGIPDRFSGSNSGNTATLVISRVGAGDEADYFCQVWDSRSDHQVFGGGTKLTVL | binds |
| scFv 1-437 (scFv, V domains shown) VH: QVQLVQSGGGLVKPGGSLRLSCAASGFIFSNYIMNWVRQAPGKGLEWVSSISSSGSYIYYADSVKGRFTISRDNAKNSMYLQMNSLRGEDTAVYYCAAAYDFWSGYYFWGQGTTVTVSS VL: ELALTQPPSVSGSPGQSITISCTGTSSDVGGYNYVSWYQQHPGKAPKLMIYEVSNRPSGVSNRFSGSKSGNTASLTISGLQAEDEADYYCSSYTSSTPYVFGTGTKVTVL | binds |
| scFv 1-451 (scFv, V domains shown) VH: QVQLVQSGGGLVQPGRSLRLSCAASGFIFDDYAMHWVRQAPGKGLEWVSGISWNSGSIGYADSVKGRFTISRDNAKNSLYLQMNSLRAEDTALYYCAKDPNSLYRSGSFDYWGQGTLVTVSS VL: not shown | binds |
| scFv 1-440 (scFv, V domains shown) VH: EVQLLESGGGLVQPGRSLRLSCAASGFIFDDYAMHWVRQAPGKGLEWVSGISWNSGSIGYADSVKGRFTISRDNAKNSLYLQMNSLRAEDTALYYCAKDPNSLYRSGSFDYWGQGTLVTVSS VL: ELQMTQSPSSLSASVGDRVTITCRASQSISSYLNWYQQKPGKAPKLLIYAASSLESGVPSRFSGSGSGTDFTLTISSLQPEDFASYYCQQSYSTPFTFGPGTKVDIK | binds |
| scFv z1-201 (scFv, V domains shown) VH: QVQLVQFGGGLVQPGRSLRLSCAASGFIFDDYAMHWVRQAPGKGLEWVSGISWNSGSIGYADSVKGRFTISRDNAKNSLYLQMNSLRAEDTALYYCAKDPNSLYRSGSFDYWGQGTLVTVSS VL: not shown | binds |
| scFv 1-441 (scFv, V domains shown) VH: QVQLQESGGGVVQPGRSLRLSCTDSGFTFSRYAMHWVRQAPGKGLEWVAGISYDGSYEYYADSVKGRFTISRDNSKNTLYVQMNSLRGEDTAVYYCARDLRGGEDYWGQGTLVTVSS VL: ELVVTQPPSVSAAPGQKVTISCSGSTSNIGNNYVSWYQQFPGTAPKLLIYDNNKRPSGIPDRFSGSKSGTSATLGITGLQTGDEADYYCGTWDSSLSAVVFGGGTKVTVL | binds |
| scFv 1-450 (scFv, V domains shown) VH: QVQLVQSGAEVKKPGSSMNVSCKASGGTFSRHTINWVRQAPGQGLEWMGSIIPILGITNYAQNFQGRLTFSADKSTNTAYVELSGLRSEDTAVYYCASGDYYYDMAVWGQGTTVAVTS VL: ELVLTQPPSVSVSPGQTARITCSGDALPKQYAYWYQQKPGQAPVLVIYKDSERPSGIPERFSGSSSGTTATLTISGVQAEDEADYYCQSAYSSGTVVFGGGTELTVL | binds |
| scFv 1-401 (scFv, V domains shown) VH: QVQLVQSGAELKKPGSSVKVSCKASGGAFTMYTINWVRQAPGRGLEWMGRIIPILGITDYAQKFQGRGTITADKSTSTAYLELSGLTSEDTAVYYCAREFSGGNYFDFWGQGTLVTVSS VL: ELVLTQPPSVSVAPGKTARMTCGGNNIGGYSVHWYQQKPGQAPVLVVYHDSDRPSGIPERFTGSNSGNMATLTISRVEAGDEADYYCQVWDSSNDHSVFGGGTELTVL | binds |
| scFv 1-458 (scFv, V domains shown) VH: QVQLVQSGAELKKPGSSVKVSCKASGGAFTMYTINWVRQAPGRGLEWMGRIIPILGITDYAQKFQGRGTITADKSTSTAYLELSGLTSEDTAVYYCAREFSGGNYFDFWGQGTLVTVSS VL: ELVLTQPPSVSVAPGKTARIPCGGNNIGGKSVHWYQQRPGQAPVLVVYSDSVRPSGIPERFSGSNSGNTATLTISRVEAGDEADYYCQVWDRSSDHVVFGGGTQLTVL | binds |
| scFv 2-108 (scFv, V domains shown) VH: EVQLVQSGGGLVQPGGSLRLSCAASGFTFSSYWMSWVRQAPGKGLEWVANIKQDGSEKHYVDSMKGRFTISRDNGKNSLYLQMNSLRAEDTAVYYCARSPGYYFDYWGQGTLVTVSS VL: ELVVTQPPSASGTPGQRVTISCSGSSSNIGSNYVYWYEQLPGTAPKLLIYRNNQRPSGVPDRFSGSKSGTSASLAISGLRSEDEADYYCAAWDDSLRVYVFGTGTKLTVL | binds |
| scFv 2-206 (scFv, V domains shown) VH: QVQLVQSGADVKKPGSSVKVSCKASGGTFSSYTINWVRQAPGQGLEWMGRIVPILDIANYAQKFQGRVTITADKSTSTAYMELSSLTSEDTAVYYCARDRGYDNKYGAYWGQGTLVTVSS VL: ELVLTQPPSVSVAPGQTARITCGGNNIGSKNVHWYQQKPGQAPVLVVYDDSDRPSGIPERFSGSNSGNTATLTISRVEAGDEADYYCQVWDSSSDHWVFGGGTKVTVL | binds |
| scFv 2-304 (scFv, V domains shown) VH: QVHLVQSGAEVKKPGSSVKVSCKASGGTFSSYAISWVRQAPGQGLEWMGGITPILGVTNYSQKFQGRVTVTADISTTTAYMELSSLTSEDTAVYYCARDQGYANDYGAYWGQGTLVTVSS VL: ELVLTQPPSVSVAPGQTARITCGGNNIESKNVHWYQQKPGQAPVLVVYDDSGRPSGIPERFSGSNSGNTATLTISRVEAGDEADYYCQVWDSSSDHWVFGGGTKLTVL | binds |
